One substance from PMC4767259 (Journal of nuclear medicine : official publication, Society …, 2015) can be followed below.

The conditions of data set [1]: intraarterial (left femoral artery) intervention, insulin 0.34-0.38 IU/kg, rats.
For data set [2], the system named is leg muscles (lateral gastrocnemius) and systemic muscles (spinotrapezius). The experiment in a line: 18F-FDG uptake PET imaging of muscles, SUV time-activity curve slope analysis. Format: in vivo, CD IGS rats. To be noted: SF group: insulin 3.39-48.48 IU/kg into tail vein, n = 3, mean ± SD.

With Insulin, the Adverse events result in data set [1] is “No adverse events were observed”. For the same substance, in data set [2], the “baseline of the 18F-FDG uptake SUVs” value was found to be 0.7547 ± 0.1208.
